Reference: article PMC4996995

Target: T1, (His)6-YycF, non-phosphorylated response regulator (Streptococcus pneumoniae TIGR4) (UniProt A0A0H2UQ68)
T1 sequence: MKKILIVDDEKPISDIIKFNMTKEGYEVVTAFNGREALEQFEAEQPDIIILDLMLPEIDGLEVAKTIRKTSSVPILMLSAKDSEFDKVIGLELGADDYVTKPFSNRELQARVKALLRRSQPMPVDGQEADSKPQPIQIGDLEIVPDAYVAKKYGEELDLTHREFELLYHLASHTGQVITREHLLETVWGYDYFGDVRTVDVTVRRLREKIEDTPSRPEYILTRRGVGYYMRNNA
Assay: EMSA
Conditions: EMSA: 50 mM Tris-HCl pH 7.8, 500 mM NaCl, 4 mM MgCl2, 20 uL, 0.5-1.0 nM DNA, 0°C 30 min; 5% native PAGE, TBE, 4°C

CATTCGGAGAGAAGAAGACCTAAATTTACAGGAAAATAAAAAATACTTGCATCATTCTTTGAATTTTGATATAATTCTTTCTGTCAAATGTTTTGATTGTAAAAGTTTTTTGAAGAAGGAGGGATATGAAAAATGGACTACCAACGAATCAATGAATATTTAACATCTATATTTAACAATGTCCTTGTAATTGAGG (double strand) [amplicon A (PFabT promoter region)]
binding: binds
